How the values were obtained:
[1] = target: glucose oxidase (GOD, E.C. 1.1.3.4, type VII, MW ≈ 160,000) (UniProt P13006); experiment: quartz crystal microbalance (QCM); layer-by-layer adsorption on Au/MPS/PDDA-coated quartz resonator; alternate immersion in Con A (1 mg/mL, pH 7.0) and GOD (1 mg/mL, pH 7.0) for 20 min each, 0.1 M Tris-HCl with 0.1 M NaCl, 1 mM MnCl2, 1 mM CaCl2; washed, dried, frequency measured in air
[2] = target: concanavalin A extracted from Jack beans (Con A, type V, MW ≈ 104,000) (Jack bean); experiment: as above

Substance	average QCM frequency decrease for each layer [1]	average QCM frequency decrease for each layer [2]
concanavalin A extracted from Jack beans (Con A, type V, MW ≈ 104,000) (natural protein)	82 Hz	
glucose oxidase (GOD, E.C. 1.1.3.4, type VII, MW ≈ 160,000) (from UniProt P13006 17-605) (enzyme)		58 Hz
